Consider five molecules from patent US20110318356A1 (Novo Nordisk, published 2011).

Some results are limits rather than exact numbers.

As a reminder, the Kd is a measure of binding affinity in units of concentration. For orientation: kon means the rate constant with which the complex forms. By koff is commonly meant a measure of how fast the partners let go of each other.

The target in experiment [1] is T1, recombinant full length human tissue factor pathway inhibitor (TFPI) (human, UniProt P10646 29-304).
T1 construct: also called TFPI1; human TFPI
The experiment in a line: SPR (Biacore). For orientation: In SPR one partner is held on a chip, and binding of the other changes the refractive index at the surface.
Description: The affinity analyses were done using SRP as described below.
(§1) These were followed by a direct binding kinetic procedure on selected mAb constructs, with the monoclonal antibody covalently coupled via free amine groups to the carboxymethylated dextrane membrane (CM5) on the sensor chip surface.

The target in experiment [2] is T1, recombinant full length human tissue …. Description: SPR (Biacore), recombinant human TFPI over the mAb.
Description: Binding interaction analysis was obtained by Surface Plasmon Resonance in a Biacore 3000. Capture of the relevant monoclonal antibody at a fixed concentration was obtained with immobilised mouse anti-IgG. Different concentrations of TFPI were tested.
as §1
Experiment [3] shares this target. The experiment in a line: SPR (Biacore), TFPI.
The target is the same in experiment [4]. Description: cell-based or functional assay.
For experiment [5] the target is unchanged. The experiment in a line: cell-based or functional assay. The source holds these as a separate data set.
Experiment [6] shares this target. Description: SPR (Biacore), recombinant human TFPI.
For experiment [7] the target is unchanged. The experiment in a line: SPR (Biacore T-100), mAb immobilised, full length human TFPI.
Description: (§2) Binding interaction analysis was obtained by Surface Plasmon Resonance in a Biacore T-100 instrument. Capture of the relevant monoclonal antibody at a fixed concentration was obtained by direct immobilization to a CM5 chip of the mAb to a level of 500-1000 RU in 10 mM sodium acetate pH 4.5-5.0. […] Running and dilution buffer: 10 mM HEPES, 150 mM, 0.005% p20, pH 7.4. Regeneration was obtained by 10 mM Glycine, pH 1.7. Determination of kinetic and binding constants (kₒₙ, koff, KD) was obtained assuming a 1:1 interaction of TFPI and the antibody of interest using the Biacore T100 evaluation software. […] Regeneration of the chip was obtained by 10 mM Glycine, pH 1.7.
Experiment [8] deals with T2, human TFPI short form (1-161 amino acid residues) (human, UniProt P10646 29-189).
T2 construct: also called TFPI161; TFPI (1-161)
Description: SPR (Biacore T-100), mAb immobilised, TFPI161 (K1 and K2 domains).
Description: as §2

Experiment [9] deals with T1, recombinant full length human tissue …. Description: SPR (Biacore T-100), mAb immobilised on CM5 chip, full length human TFPI, 1:1 model.
Description: as §2

B1: MuTFPI4F36 (TFPI-4F36A1B2) murine monoclonal antibody (antibody, mouse IgG1, kappa, V domains shown)
VH: EVELVESGGGLVKPGGSLKLSCAASGFTFSNYAMSWVRQTPEKRLEWVATISRSGSYSYFPDSVQGRFTISRDNAKNTLYLQMSSLRSEDTAMYYCTRLGGYDEGDAMDSWGQGTSVTVSS
VL: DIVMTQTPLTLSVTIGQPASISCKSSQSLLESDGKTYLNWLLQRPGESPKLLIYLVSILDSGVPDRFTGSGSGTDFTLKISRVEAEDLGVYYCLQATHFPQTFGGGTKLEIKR
notes: murine kappa / IgG1; also called anti-TFPI4F36A1B2; Murine TFPI4F36
Consider B1, for which, in experiment [1], the Kd is around 0.03 nM. Further, in [2], the Kd came to 0.0282 nM and the kon stood at 4.7e+06 M⁻¹ s⁻¹.

B2: HzTFPI4F36-CDRgrafted (initial CDR grafted version of humanized TFPI4F36) (antibody, human IgG4 S228P, kappa)
heavy: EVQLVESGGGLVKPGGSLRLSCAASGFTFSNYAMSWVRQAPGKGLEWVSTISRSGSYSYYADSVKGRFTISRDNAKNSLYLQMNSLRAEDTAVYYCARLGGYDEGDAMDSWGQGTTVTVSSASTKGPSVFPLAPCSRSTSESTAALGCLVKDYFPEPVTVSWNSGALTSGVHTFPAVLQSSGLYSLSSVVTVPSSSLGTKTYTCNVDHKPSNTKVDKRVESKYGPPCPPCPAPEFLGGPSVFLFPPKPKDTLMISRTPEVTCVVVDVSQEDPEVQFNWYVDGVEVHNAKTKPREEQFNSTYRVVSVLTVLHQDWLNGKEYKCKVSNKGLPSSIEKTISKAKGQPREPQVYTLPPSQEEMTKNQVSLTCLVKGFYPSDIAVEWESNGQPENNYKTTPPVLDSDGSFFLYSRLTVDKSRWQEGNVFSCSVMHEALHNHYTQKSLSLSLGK
light: DIVMTQTPLSLSVTPGQPASISCKSSQSLLESDGKTYLNWYLQKPGQSPQLLIYLVSILDSGVPDRFSGSGSGTDFTLKISRVEAEDVGVYYCLQATHFPQTFGGGTKVEIKRTVAAPSVFIFPPSDEQLKSGTASVVCLLNNFYPREAKVQWKVDNALQSGNSQESVTEQDSKDSTYSLSSTLTLSKADYEKHKVYACEVTHQGLSSPVTKSFNRGEC
notes: human kappa/IgG4(S241P); also called hz4F36CDRgraft
B2: the “fold lower affinity than the original mouse TFPI4F36 antibody” value in experiment [1] is at least 100 fold. Further, in [2], the Kd was found to be 2.06 nM and the kon was 1.07e+06 M⁻¹ s⁻¹.

B3: HzTFPI4F36 (mAbTFPI2021) humanized monoclonal antibody (antibody, human IgG4 S228P, kappa, V domains shown)
VH: EVQLVESGGGLVKPGGSLRLSCAASGFTFSNYAMSWVRQTPEKRLEWVATISRSGSYSYFPDSVQGRFTISRDNAKNSLYLQMNSLRAEDTAVYYCARLGGYDEGDAMDSWGQGTTVTVSS
VL: DIVMTQTPLSLSVTPGQPASISCKSSQSLLESDGKTYLNWYLQKPGQSPQLLIYLVSILDSGVPDRFSGSGSGTDFTLKISRVEAEDVGVYYCLQATHFPQTFGGGTKVEIKR
notes: human kappa/IgG4(S241P); also called mAb2021; mAbTFPI4F36
Take B3: the dissociation constant Kd in experiment [1] was around 0.025 nM; in [3] it was 0.026 nM; in experiment [6] it was 0.026 nM; in experiment [7] it was 0.015 nM; in experiment [8] it was 0.0455 nM; in [9], 0.015 nM. For the same molecule, in [4], the “IC50, neutralization of TFPI inhibition of FXa” value amounted to 12.6 nM. The “IC50, neutralization of TFPI inhibition of FVIIa/TF/FX” value in experiment [5] was found to be 3.8 nM. Also, in experiment [9], the koff was determined as 3.58e-05 s⁻¹. Besides, the kon in [9] was 2.39e+06 M⁻¹ s⁻¹.

B4: HzTFPI4F36 HC-G42E, G44R, CDR2 (antibody, human IgG4 S228P, kappa, name in Kabat numbering, V domains shown)
VH: EVQLVESGGGLVKPGGSLRLSCAASGFTFSNYAMSWVRQAPEKRLEWVSTISRSGSYSYFPDSVQGRFTISRDNAKNSLYLQMNSLRAEDTAVYYCARLGGYDEGDAMDSWGQGTTVTVSS
VL: DIVMTQTPLSLSVTPGQPASISCKSSQSLLESDGKTYLNWYLQKPGQSPQLLIYLVSILDSGVPDRFSGSGSGTDFTLKISRVEAEDVGVYYCLQATHFPQTFGGGTKVEIKR
notes: Mutated CDR-grafted heavy chain with wild type CDR-grafted light chain; Kabat numbering; also called HzTFPI4F36 G42E, G44R, Y59F, A60P, K64Q
In the case of B4, the Kd in experiment [3] and in experiment [6] was 0.039 nM throughout.

B5: HzTFPI4F36 HC-G42E, G44R, A60P, K64Q (antibody, human IgG4 S228P, kappa, name in Kabat numbering, V domains shown)
VH: EVQLVESGGGLVKPGGSLRLSCAASGFTFSNYAMSWVRQAPEKRLEWVSTISRSGSYSYYPDSVQGRFTISRDNAKNSLYLQMNSLRAEDTAVYYCARLGGYDEGDAMDSWGQGTTVTVSS
VL: DIVMTQTPLSLSVTPGQPASISCKSSQSLLESDGKTYLNWYLQKPGQSPQLLIYLVSILDSGVPDRFSGSGSGTDFTLKISRVEAEDVGVYYCLQATHFPQTFGGGTKVEIKR
notes: Mutated CDR-grafted heavy chain with wild type CDR-grafted light chain; Kabat numbering; also called HzTFPI4F36 G42E, G44R, A60P, K64Q
In the case of B5, the Kd in experiment [3] and in experiment [6] was 0.093 nM each time.
